Laboratory results reported in US20040157314A1, “Inhibitors of Staphylococcus aureus primary sigma factor and uses thereof” (priority 2003, published 2004).

How the values were obtained:
[1] = target: T1, reconstituted holoenzyme from HK-STAAU_R12 and S. aureus core enzyme (Staphylococcus aureus, UniProt P0A0J0); assay: In vitro transcription and TCA precipitation assay, 96-well; format: biochemical; details: 10 μM, FIG. 8
T1 construct: made in house; S. aureus RN4220 transformed with pTMHB rpoA (core enzyme)
From the text: In order to convert this gel-based transcription assay to a 96-well high through put format, we used an in vitro transcription assay followed by a TCA precipitation step in order to separate radiolabeled nucleotides incorporated into nucleic acid from unincorporated label. Such format is convenient as it will allow rapid screening with a large collection of compounds. In this TCA precipitation assay, we reconstituted the holoenzyme from STAAU_R12 and S. aureus core enzyme instead of using the E. coli core enzyme with STAAU_R12.
The E. coli core enzyme (Epicentre) was used as a positive control for monitoring transcription efficiency. The set up of high throughput screening assay for STAAU_R12 is illustrated in FIG. 7. […] UTP (3000 Ci/mmole), 1 U of RNasin (Promega) and 40 ng of pTMSM template DNA (a pTM derivative vector). To investigate the in vitroeffectofG1ORF67 on STAAU_R12 mediated transcriptional activation, G1ORF67 and a negative control (10 μM) were added to the mixture and the reaction was incubated for 1 h at 37° C. in a 96-well PCR-plate (BD-Falcon™). […] After filtration, the wells were washed 3 times (225 μl per wash) with 10% TCA, 2 times (225 μl per wash) with 95% ethanol and then 75 μl of liquid scintillation cocktail was added and the plates were counted for 30 s on a Trilux™ Microbeta counter (Perkin Elmer-Packard).

[2] = target: SV40 large T antigen (pGADT7-LargeT) (SV40, UniProt P03070 86-708); assay: yeast two-hybrid, AH109
HK-STAAU_R12 [3] = target: T2, HK-STAAU_R12 (Staphylococcus aureus, UniProt P0A0I8 1-368); assay: TR-FRET, 32 nM of both GB-G1ORF67 and HK-STAAU_R12
T2 construct: not shown: N-terminal 6x histidine tag and heart muscle kinase (HMK) phosphorylation site of vector pH6K

S. aureus RN4220 = assay: Growth kinetics assay (CFU) of S. aureus clones expressing phage ORF under arsenite-inducible promoter; format: cell-based, Staphylococcus aureus
From the text: Bacteriophage ORFs encoded in phage G1 genome were identified as follows: beginning at the first nucleotide, the phage G 1 genome sequence is scanned for a start codon. When one is identified, the number of in-frame codons is counted until a termination codon is reached. A minimum threshold of 33 codons defines this bounded sequence as an ORF. This procedure is repeated, starting at the next nucleotide following the last stop codon, until the end of the phage sequence is reached. The scan is performed in an identical manner on all three reading frames of both DNA strands of the phage sequence, in order to identify all the putative ORFs. Putative genes are then identified based on the presence of a Shine-Dalgarno sequence within the 15 nucleotides upstream of the start codon. The E. coli-S. aureus shuttle vector pTOO21 (Tauriainen et al., Appl. Environ. Microbiol. (1997) 63:4456-64), containing the arsenite-inducible ars promoter and the arsR gene, was modified with an optimal Shine-Dalgarno sequence (AGGAGG) followed by a multiple cloning site (MCS). DNA encoding individual phage ORFs was amplified by PCR from phage genomic DNA and cloned into the MCS of the modified vector. […]

[4] = target: E. coli holoenzyme (E. coli sigma factor and E. coli core RNA polymerase) (Escherichia coli, UniProt P00579); details: pre-incubation with E. coli holoenzyme, FIG. 6C
Procedure: (§1) The E. coli holoenzyme (Epicentre) was used at 10 nM as a positive control for monitoring transcription efficiency. Assays were done with increasing amounts (0 to 500 nM) of STAAU_R12 and 25 nM of E. coli core in a total volume of 25 μl containing 40 mM Tris-acetate pH 7.9, 100 mM NaCl, 5 mM MgCl2, 1 mM DTT, 0.1 mg/ml BSA, 0.5 mM of each ATP, GTP, CTP, 0.25 mM UTP, 5 μCi [^32P] UTP (3000 Ci/mmole), 2 units of RNasin (Promega) and 40 ng of pB6 template DNA (Lutz and Bujard, Nuc. Acid Res. (1997) 6:1203-10) harboring λPL promoter, kanamycin gene and the Col E1 RNA-1. […] Reactions were incubated at 37° C. for 15 min and stopped by addition of 5 μl of loading buffer (95% formamide, 20 mM EDTA and 0.05% of each xylene cyanol and bromophenol blue). Samples were boiled for 5 min and electrophoresed on a 6% polyacrylamide/8 M urea gel.

[5] = target: holoenzyme reconstituted from STAAU_R12 and E. coli core RNA polymerase (Staphylococcus aureus, UniProt P0A0J0); assay: In vitro transcription assay (polyacrylamide/urea gel), reconstituted holoenzyme; format: biochemical; details: pre-incubation with STAAU_R12, 0 to 2 μM, FIG. 6B
Procedure: as §1

[6] = target: STAAU_R12 with E. coli core and biotinylated λPR oligonucleotide (Staphylococcus aureus, UniProt P0A0J0); format: biochemical; details: 0 to 4 μM; 32 nM HK-STAAU_R12, 45 nM biotinylated DNA
Procedure: We developed a fluorescence-based high throughput assay to monitor the interaction of STAAU_R12 with its cognate DNA. […] Europium cryptate (Eu) labeled anti-Histidine was used as an energy donor and Allophycocyanin (APC) labeled streptavidin was used as an energy acceptor.
The reaction was incubated for 15 min at room temperature and then, 6 μl of a mixture of Eu-conjugated anti-Histidine (CIS International) and APC-conjugated streptavidin (Prozyme) were added to final concentrations of 3 and 15 nM, respectively. Samples were mixed and 25 μl of the mixture was transferred to a 96-well opaque plate (Molecular Devices). After 45 min incubation at room temperature, the emission at 665 nm (APC) and at 612 nm (Eu) arising from excitation as 340 nm was measured using a Tecan Ultra™ plate reader. […] A mutated version of untagged λPR oligonucleotide consisting of a substitution of the −35 region (from TTGACT in the wild type PR oligonucleotide to ACTTTG in the mutated oligonucleotide) was used as a non specific competitor. Competitors were added to the reaction mixture prior to addition of Eu and APC conjugates.

STAAU_R12 [7] = target: T3, STAAU_R12 (Staphylococcus aureus, UniProt P0A0J0); assay: Far Western analysis with 32P-labeled HK-STAAU_R12 probe; format: binding; parameters: made in house; host or cells: E. coli BL21; details: 100 ng to 2 μg immobilised protein, FIG. 4
Procedure: Radiolabeling of the proteins was done through the heart muscle phosphate acceptor site with the heart muscle kinase enzyme (HMK). The labeled probe was incubated with immobilized target protein, and the interaction was detected by exposure to X-ray film after extensive washes.
For radiolabeling with […], 10-15 μg of STAAU_R12 fused to 6× histidine and the HMK kinase acceptor domain (HK-STAAU_R12) were incubated with 50 units of the catalytic sub-unit of cAMP-dependent protein kinase (Heart Muscle Kinase; Sigma) in a total volume of 100 μl containing 20 mM Tris pH 7.5, 100 mM NaCl, 12 mM MgCl2, 1 mM DTT and 50 μCi of [γ^32P]-ATP (3000 Ci/mmole) (NEN/Mandel) for 30 min at room temperature. To remove free nucleotides, the protein was applied to a Sephadex-G50™ column and eluted with Z-buffer (25 mM Hepes pH 7.7, 12.5 mM MgCl2, 20% glycerol, 100 mM KCl & 1 mM DTT) and the incorporation of γ^32P-ATP was determined by counting in a liquid scintillation counter.
Increasing amounts (from 100 ng to 2 μg) of HB-G1ORF67 and as a negative control, 77ORF104 protein (2 μg) were used for Far-western analysis. Proteins were resolved by 15% SDS-PAGE and transferred onto a nitrocellulose membrane (Millipore). […]

HK-STAAU_R12 [8] = target: T2, HK-STAAU_R12; assay: TR-FRET competition, untagged G1ORF67 against 32 nM GB-G1ORF67 on 32 nM HK-STAAU_R12
[9] = target: STAAU_R12 full length fused to the Gal4 activation domain (p[…]_R12) (Staphylococcus aureus, UniProt P0A0I8 1-368); assay: yeast two-hybrid, AH109
STAAU_R12 [10] = target: T3, STAAU_R12; assay: Yeast two-hybrid analysis; format: cell-based; parameters: expressed in transfected cells; host or cells: yeast strain AH109 (Clontech); details: yeast AH109
From the text: To validate the interaction between G1ORF67 and STAAU_R12, we first performed yeast two-hybrid analyses with full length and deletions within both STAAU_R12 and G1ORF67. The inserts were cloned into pGADT7™ and pGBK™, the yeast vectors for two hybrid system studies (Clontech Laboratories) as fusions with the Gal4 activation domain (for pGADT7™) as well as with the Gal4 DNA-binding domain (for pGBK™). pGADT7 and pGBK recombinant plasmids bearing different combinations of constructs were introduced into a yeast strain (AH109, Clontech Laboratories), previously engineered to contain chromosomally-integrated copies of E. coli lacZand the selectable HIS3 and ADE2 genes. […]
To define the minimal region of STAAU_R12 conferring an interaction with G1ORF67, six deletions of STAAU_R12 were cloned into pGADT7 and introduced into AH109 yeast cells with the pGBK vector containing the full length sequence of G1ORF67. The resulting co-transformants were analyzed for their ability to induce expression of reporter genes.
To define the minimal region of G1ORF67 conferring an interaction with STAAU_R12, six deletions of G1ORF67 were cloned into pGADT7 and introduced into AH109 yeast cells with the pGBK vector containing the full length sequence of STAAU_R12. The resulting co-transformants were analyzed for their ability to induce expression of reporter genes required for viability on selective medium.

T3 sequence (P0A0J0 whole entry): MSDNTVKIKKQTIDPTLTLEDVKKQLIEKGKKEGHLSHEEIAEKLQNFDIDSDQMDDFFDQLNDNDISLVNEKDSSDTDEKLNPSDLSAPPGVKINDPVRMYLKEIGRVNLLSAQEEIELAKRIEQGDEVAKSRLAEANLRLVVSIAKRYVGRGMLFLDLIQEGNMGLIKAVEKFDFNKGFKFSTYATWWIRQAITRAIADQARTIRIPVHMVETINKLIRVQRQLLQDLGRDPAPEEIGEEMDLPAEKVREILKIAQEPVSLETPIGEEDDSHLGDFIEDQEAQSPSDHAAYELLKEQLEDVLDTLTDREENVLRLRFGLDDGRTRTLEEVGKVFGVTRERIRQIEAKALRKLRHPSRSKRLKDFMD
T2 sequence (P0A0I8 whole entry): as the sequence (P0A0J0 whole entry) above
T1 sequence (P0A0J0 whole entry): as above
Sequence of E. coli holoenzyme (E. coli sigma factor and E. coli core RNA polymerase) (P0A8V2 whole entry): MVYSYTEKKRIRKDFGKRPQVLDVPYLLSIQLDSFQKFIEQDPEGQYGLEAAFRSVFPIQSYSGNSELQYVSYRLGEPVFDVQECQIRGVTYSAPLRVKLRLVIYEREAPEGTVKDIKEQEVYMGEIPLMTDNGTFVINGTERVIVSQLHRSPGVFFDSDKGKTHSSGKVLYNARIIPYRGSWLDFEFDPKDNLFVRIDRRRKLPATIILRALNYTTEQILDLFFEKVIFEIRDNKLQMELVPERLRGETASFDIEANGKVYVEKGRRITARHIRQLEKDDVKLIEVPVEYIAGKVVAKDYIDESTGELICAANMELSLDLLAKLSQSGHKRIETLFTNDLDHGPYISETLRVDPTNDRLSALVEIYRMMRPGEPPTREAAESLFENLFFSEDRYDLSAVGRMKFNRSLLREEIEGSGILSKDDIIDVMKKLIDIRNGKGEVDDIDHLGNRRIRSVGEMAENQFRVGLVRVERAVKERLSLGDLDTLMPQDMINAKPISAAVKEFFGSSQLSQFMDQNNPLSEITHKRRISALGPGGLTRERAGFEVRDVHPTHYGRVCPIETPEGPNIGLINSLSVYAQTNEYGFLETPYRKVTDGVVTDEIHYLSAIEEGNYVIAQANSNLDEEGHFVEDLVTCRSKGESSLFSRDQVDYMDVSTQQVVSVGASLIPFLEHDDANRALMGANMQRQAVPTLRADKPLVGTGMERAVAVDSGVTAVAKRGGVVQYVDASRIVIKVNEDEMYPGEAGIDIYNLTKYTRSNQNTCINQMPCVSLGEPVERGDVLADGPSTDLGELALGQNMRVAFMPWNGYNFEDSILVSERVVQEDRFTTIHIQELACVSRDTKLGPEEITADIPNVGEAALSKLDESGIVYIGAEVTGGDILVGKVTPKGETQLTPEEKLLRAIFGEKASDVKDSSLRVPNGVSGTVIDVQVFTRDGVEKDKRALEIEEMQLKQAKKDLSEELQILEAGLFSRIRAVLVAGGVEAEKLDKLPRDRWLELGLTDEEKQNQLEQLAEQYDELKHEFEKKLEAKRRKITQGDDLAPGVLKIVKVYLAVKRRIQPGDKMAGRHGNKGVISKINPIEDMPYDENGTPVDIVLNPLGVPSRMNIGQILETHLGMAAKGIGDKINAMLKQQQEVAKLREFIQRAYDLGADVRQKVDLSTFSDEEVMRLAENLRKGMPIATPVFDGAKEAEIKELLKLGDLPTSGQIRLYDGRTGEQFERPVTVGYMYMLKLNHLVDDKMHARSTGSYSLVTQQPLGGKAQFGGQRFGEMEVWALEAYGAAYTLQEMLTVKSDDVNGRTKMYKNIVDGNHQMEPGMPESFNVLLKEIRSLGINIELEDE
Sequence of E. coli holoenzyme (E. coli sigma factor and E. coli core RNA polymerase) (P00579 whole entry): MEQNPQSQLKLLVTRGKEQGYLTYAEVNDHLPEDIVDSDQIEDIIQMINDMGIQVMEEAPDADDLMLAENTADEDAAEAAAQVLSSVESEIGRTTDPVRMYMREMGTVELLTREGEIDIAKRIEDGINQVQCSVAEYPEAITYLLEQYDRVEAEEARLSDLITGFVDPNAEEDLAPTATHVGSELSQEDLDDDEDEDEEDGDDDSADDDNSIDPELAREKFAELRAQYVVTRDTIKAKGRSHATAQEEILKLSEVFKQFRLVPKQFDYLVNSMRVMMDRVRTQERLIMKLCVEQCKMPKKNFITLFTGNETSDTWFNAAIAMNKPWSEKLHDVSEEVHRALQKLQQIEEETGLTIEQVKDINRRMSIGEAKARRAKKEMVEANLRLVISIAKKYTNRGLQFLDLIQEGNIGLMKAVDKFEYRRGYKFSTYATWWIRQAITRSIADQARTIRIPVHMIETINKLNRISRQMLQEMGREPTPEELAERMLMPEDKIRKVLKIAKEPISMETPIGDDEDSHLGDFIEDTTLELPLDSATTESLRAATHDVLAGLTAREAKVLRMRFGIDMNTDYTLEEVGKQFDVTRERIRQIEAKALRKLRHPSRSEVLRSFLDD
Sequence of E. coli holoenzyme (E. coli sigma factor and E. coli core RNA polymerase) (P0A7Z4 whole entry, further chain): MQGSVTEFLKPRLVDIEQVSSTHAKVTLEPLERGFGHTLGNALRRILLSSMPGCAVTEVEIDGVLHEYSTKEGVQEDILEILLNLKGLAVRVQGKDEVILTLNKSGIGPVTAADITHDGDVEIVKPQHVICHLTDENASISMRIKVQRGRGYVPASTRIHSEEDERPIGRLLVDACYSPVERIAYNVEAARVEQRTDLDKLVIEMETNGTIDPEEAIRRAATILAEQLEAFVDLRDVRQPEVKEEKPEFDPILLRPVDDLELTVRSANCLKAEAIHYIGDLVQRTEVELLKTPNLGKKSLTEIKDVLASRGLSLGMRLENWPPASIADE
Sequence of E. coli holoenzyme (E. coli sigma factor and E. coli core RNA polymerase) (P0A8T7 whole entry, further chain): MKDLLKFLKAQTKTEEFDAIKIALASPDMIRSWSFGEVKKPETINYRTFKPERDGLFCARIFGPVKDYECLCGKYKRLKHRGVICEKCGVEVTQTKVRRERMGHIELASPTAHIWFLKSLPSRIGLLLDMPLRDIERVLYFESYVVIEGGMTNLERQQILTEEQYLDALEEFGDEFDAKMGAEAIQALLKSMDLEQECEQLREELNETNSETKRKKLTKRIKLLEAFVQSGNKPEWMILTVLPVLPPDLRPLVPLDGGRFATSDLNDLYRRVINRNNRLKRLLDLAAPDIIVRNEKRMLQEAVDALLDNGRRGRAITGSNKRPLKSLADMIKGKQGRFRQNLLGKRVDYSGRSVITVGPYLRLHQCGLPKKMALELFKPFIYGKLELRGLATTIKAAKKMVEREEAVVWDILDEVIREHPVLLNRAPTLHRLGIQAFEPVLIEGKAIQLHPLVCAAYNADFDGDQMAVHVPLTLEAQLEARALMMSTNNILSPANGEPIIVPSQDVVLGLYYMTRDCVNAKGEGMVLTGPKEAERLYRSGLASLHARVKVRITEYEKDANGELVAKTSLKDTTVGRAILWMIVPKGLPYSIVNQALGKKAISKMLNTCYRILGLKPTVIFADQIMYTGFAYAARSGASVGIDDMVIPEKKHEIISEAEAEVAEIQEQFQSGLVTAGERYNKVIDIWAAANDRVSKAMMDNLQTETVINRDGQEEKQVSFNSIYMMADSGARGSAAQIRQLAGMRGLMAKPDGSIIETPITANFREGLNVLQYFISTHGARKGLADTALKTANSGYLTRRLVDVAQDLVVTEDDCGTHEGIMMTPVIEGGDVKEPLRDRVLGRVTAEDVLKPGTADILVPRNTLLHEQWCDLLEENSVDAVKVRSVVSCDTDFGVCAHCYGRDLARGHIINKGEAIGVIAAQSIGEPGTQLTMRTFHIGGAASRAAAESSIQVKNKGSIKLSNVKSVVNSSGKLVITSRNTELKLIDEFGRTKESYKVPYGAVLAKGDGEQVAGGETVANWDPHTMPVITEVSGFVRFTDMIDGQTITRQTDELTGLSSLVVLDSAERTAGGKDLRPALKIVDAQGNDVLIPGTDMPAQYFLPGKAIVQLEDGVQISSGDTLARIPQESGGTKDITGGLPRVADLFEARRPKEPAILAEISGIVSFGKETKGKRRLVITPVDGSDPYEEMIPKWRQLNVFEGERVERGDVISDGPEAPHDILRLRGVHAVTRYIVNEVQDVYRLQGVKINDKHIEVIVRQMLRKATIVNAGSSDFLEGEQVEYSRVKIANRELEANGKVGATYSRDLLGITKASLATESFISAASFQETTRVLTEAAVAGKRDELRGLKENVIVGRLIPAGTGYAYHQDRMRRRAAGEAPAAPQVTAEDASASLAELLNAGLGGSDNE

For “GST: glutathione-S-transferase protein used as a negative control [reference compound]”, the “inhibition of STAAU_R12 mediated transcriptional activation (TCA precipitation)” value [1] was “did not show any inhibition”.

B1: G1ORF67 full length fused to the Gal4 DNA-binding domain (G1pGBKORF67) (other)
chain: MKLLSSIEQACDICRLKKLKCSKEKPKCAKCLKNNWECRYSPKTKRSPLTRAHLTEVESRLERLEQLFLLIFPREDLDMILKMDSLQDIKALLTGLFVQDNVNKDAVTDRLASVETDMPLTLRQHRISATSSSEESSNKGQRQLTVSMKLKILDKDNATLNVFHRNKEHKTIDNVPTANLVDWYPLSNAYEYKLSRNGEYLELKRLRSTLPSSYGLDDNNQDIIRDNNHRCKIGYWYNPAVRKDNLKIIEKAKQYGLPIITEEYDANTVEQGFRDIGVIFQSLKTIVVTRYLEGKTEEELRIFNMKSEESQLNEALKESDFSVDLTYSDLGQIYNMLLLMKKISK
B1: no binding [2].

B2: GB-G1ORF67 (other)
chain: MKLKILDKDNATLNVFHRNKEHKTIDNVPTANLVDWYPLSNAYEYKLSRNGEYLELKRLRSTLPSSYGLDDNNQDIIRDNNHRCKIGYWYNPAVRKDNLKIIEKAKQYGLPIITEEYDANTVEQGFRDIGVIFQSLKTIVVTRYLEGKTEEELRIFNMKSEESQLNEALKESDFSVDLTYSDLGQIYNMLLLMKKISK
notes: also called GST-Bio fusion of G1ORF67; GST-tagged G1ORF67
In the case of B2, the TR-FRET signal-to-background (HK-STAAU_R12 [3]) is reported as 30 ratio (to 1).

B3: G1ORF67: 198 amino acids protein from S. aureus bacteriophage G1 (SEQ ID NO: 7), anti-primary sigma factor (protein)
chain: B2 chain
modifications: Bacteriophage G1
With B3 the “number of CFU in cells expressing the ORF” value (S. aureus RN4220; S. aureus RN4220, induced with 5 μM NaAsO2, FIG. 1) was “significantly reduced”, the “type of growth inhibitory effect on S. aureus” value (S. aureus RN4220; expression of the ORF in S. aureus) was “bacteriostatic” and the “effect on transcription by E. coli holoenzyme” value [4] was “did not affect transcription”. The “inhibition of STAAU_R12-mediated transcriptional activation” value [5] was “dramatic inhibition”, the “inhibition of STAAU_R12 mediated transcriptional activation (TCA precipitation)” value [1] was “dramatic inhibition” and the “reduction of the TR-FRET signal (core-dependent DNA binding of STAAU_R12)” value [6] was 7 fold.

B4: HB-G1ORF67: G1ORF67 fused N-terminally to 6× Histidine residues and a biotin acceptor domain, purified from E. coli (protein)
chain: B2 chain
modifications: left off: small tags and cut ends
notes: G1ORF67 fused N-terminally to 6× Histidine residues and a biotin acceptor domain, purified from E. coli
For B4, the “interaction with labeled STAAU_R12 probe” value (STAAU_R12 [7]) was “directly interacts with STAAU_R12 in a dose-dependent manner”.

B5: untagged G1ORF67 (other)
chain: B2 chain
notes: also called G1ORF67 with GST portion removed by PreScission protease; not shown: the bioti
B5 was tested, and the IC50 (HK-STAAU_R12 [8]) was about 30 nM.

B6: LaminC (pGBKT7LaminC) (other)
chain: MKLLSSIEQACDICRLKKLKCSKEKPKCAKCLKNNWECRYSPKTKRSPLTRAHLTEVESRLERLEQLFLLIFPREDLDMILKMDSLQDIKALLTGLFVQDNVNKDAVTDRLASVETDMPLTLRQHRISATSSSEESSNKGQRQLTVSSEEVVSREVSGIKAAYEAELGDARKTLDSVAKERARLQLELSKVREEFKELKARNTKKEGDLIAAQARLKDLEALLNSKEAALSTALSEKRTLEGELHDLRGQVAKLEAALGEAKKQLQDEMLRRVDAENRLQTMKEELDFQKNIYSEELRETKRRHETRLVEID
B6: no binding [9].

B7: G1ORF67—50—198: 149 amino acid fragment of G1ORF67, amino acids residues 50 to 198 (SEQ ID NO: 8) (protein)
chain: NGEYLELKRLRSTLPSSYGLDDNNQDIIRDNNHRCKIGYWYNPAVRKDNLKIIEKAKQYGLPIITEEYDANTVEQGFRDIGVIFQSLKTIVVTRYLEGKTEEELRIFNMKSEESQLNEALKESDFSVDLTYSDLGQIYNMLLLMKKISK
modifications: Bacteriophage G1
In the case of B7, the “interaction with full length STAAU_R12 (growth on SD THAL minus medium)” value (STAAU_R12 [10]) is reported as “found to interact”.
